These results are taken from US20180291360.

Like-named read-outs stand apart in the source and are kept apart here.

Data set [1] deals with peptide TPAAAR.
For a further data set, the target named is T1, peptide KPGQPMY.
T1 chain: KPGQPMY

The next data set has as its target T2, peptide WHWLQLKPGQPMY
T2 chain: WHWLQLKPGQPMY

In data set [2] the target is T3, peptide TPAAAR.
T3 chain: TPAAAR

As to “COROLASE LAP (fungal exo-peptidase, AB Enzymes)”, the “hydrolysis of the peptide, LC-MS label free quantification” value with peptide TPAAAR [1] was “show no hydrolysis of TPAAAR within 12 hr”.

B1: TRI035, PepN 2 (aminopeptidase type 2) from Aspergillus clavatus NRRL 1 (protein)
chain: NAPGGPGGHGRKLPVNPKTFPNEIRLKDLLHGSQKLEDFAYAYPERNRVFGGQAHLDTVNYLYRELKKTGYYDVYKQPQVHQWTRADQSLTLGGDSIQASTMTYSPSVNVTAPLSLVSKLGCAEGDYSADVKGKIALVSRGECSFAQKSVLSAKAGAVATIVYNNVDGSLAGTLGGATSELGPYSPIIGITLAAGQDLVARLQAAPTEVSLWIDSKVENRTTYNVIAQTKGGDPNNVVALGGHTDSVENGPGINDDGSGVISNLVVAKALTRYSVKNAVRFCFWTAEEFGLLGSNYYVDNLSPAELAKIRLYLNFDMIASPNYALMIYDGDGSAFNLTGPPGSAQIESLFENYYKSIKQGFVPTAFDGRSDYEGFILKGIPAGGVFTGAESLKTEEQARLFGGQAGVALDANYHAKGDNMTNLNHKAFLINSRATAFAVATYANNLSSIPPRNATVVKRESMKWTKREEPHTHGADTGCFASRVKE
As for B1, in the data set with peptide KPGQPMY, the “hydrolysis of the peptide (X-Pro bond), LC-MS label free quantification” value is “to KPGQPMY (FIG. 6) and further down to QPMY (FIG. 7)”. Also, the “hydrolysis of the peptide, LC-MS label free quantification” value is “TRI031 and TRI035 can hydrolyze the peptide WHWLQLKPGQPMY (FIG. 5) to KPGQPMY (FIG. 6) and further down to QPMY (FIG. 7)” with peptide WHWLQLKPGQPMY; “can hydrolyze the peptide TPAAAR over time to less than half the concentration within 2 hr incubation” with peptide TPAAAR [2].

B2: TRI063, leucine aminopeptidase 2 from Aspergillus oryzae RIB40 (NCBI Reference Sequence XP_001819545.1) (protein)
chain: RALVSPDEFPEDIQLEDLLEGSQQLEDFAYAYPERNRVFGGKAHDDTVNYLYEELKKTGYYDVYKQPQVHLWSNADQTLKVGDEEIEAKTMTYSPSVEVTADVAVVKNLGCSEADYPSDVEGKVALIKRGECPFGDKSVLAAKAKAAASIVYNNVAGSMAGTLGAAQSDKGPYSAIVGISLEDGQKLIKLAEAGSVSVDLWVDSKQENRTTYNVVAQTKGGDPNNVVALGGHTDSVEAGPGINDDGSGIISNLVIAKALTQYSVKNAVRFLFWTAEEFGLLGSNYYVSHLNATELNKIRLYLNFDMIASPNYALMIYDGDGSAFNQSGPAGSAQIEKLFEDYYDSIDLPHIPTQFDGRSDYEAFILNGIPSGGLFTGAEGIMSEENASRWGGQAGVAYDANYHAAGDNMTNLNHEAFLINSKATAFAVATYANDLSSIPKRNTTSSLHRRARTMRPFGKRAPKTHAHVSGSGCWHSQVEA
For the molecule B2, the results for the “hydrolysis of the peptide, LC-MS label free quantification” value with peptide WHWLQLKPGQPMY and in the data set with peptide TPAAAR [2] were “we also find that their enzyme cleaves the peptide down to QPMY (FIG. 7)” and “show no hydrolysis of TPAAAR within 12 hr”, respectively.

B3: TRI031, PepN 2 (aminopeptidase type 2) from Neosartorya fischeri NRRL 181 (protein)
chain: NGPGWDWKPPVHPKVLPQMIHLWDLMHGAQKLEDFAYAYPERNRVFGGPAHEDTVNYLYRELKKTGYYDVYKQPQVHQWTRADQALTVDGKSYVATTMTYSPSVNVTAPLAVVNNLGCVESDYPADLKGKIALVSRGECPFATKSVLSAKAGAAAALVYNNIEGSMAGTLGGPTSELGPYAPIAGISLADGQALIQMIQAGTVTANLWIDSKVENRTTYNVIAQTKGGDPNNVVALGGHTDSVEAGPGINDDGSGIISNLVVAKALTRFSVKNAVRFCFWTAEEFGLLGSSYYVNSLNATEKAKIRLYLNFDMIASPNYALMIYDGDGSAFNLTGPAGSAQIERLFEDYYKSIRKPFVPTEFNGRSDYEAFILNGIPAGGIFTGAEAIKTEEQAKLFGGQAGVALDANYHAKGDNMTNLNREAFLINSKATAFAVATYANSLDSIPSRNMSTVVKRSQLEQAKKSTPHTHTGGTGCYKDRVEQ
Consider B3, for which the “hydrolysis of the peptide (X-Pro bond), LC-MS label free quantification” value in the data set with peptide KPGQPMY was “to KPGQPMY (FIG. 6) and further down to QPMY (FIG. 7)”. Moreover, the “hydrolysis of the peptide, LC-MS label free quantification” value with peptide WHWLQLKPGQPMY was “TRI031 and TRI035 can hydrolyze the peptide WHWLQLKPGQPMY (FIG. 5) to KPGQPMY (FIG. 6) and further down to QPMY (FIG. 7)”.

B4: TRI032, PepN 2 (aminopeptidase type 2) from Myceliophthora thermophila ATCC 42464 (protein)
chain: GGHGGSSGLGCDSQRPLVSSEKLQSLIKKEDLLAGSQELQDIATAHGGHRAFGSSGHNATVDFLYYTLKALDYYNVTKQPFKEIFSSGTGSLTVDGEDIEAETLTYTPSGSATDKPVVVVANVGCDAADYPAEVAGNIALIKRGTCTFSQKSVNAKAAGAVAAIIYNNAEGKLSGTLGQPFLDYAPVLGITLEAGEALLAKLAGGPVTATLQIDALVEERVTYNVIAETKEGDHSNVLVLGGHTDSVPAGPGINDDGSGTIGMLTVAKALTKFRVKNAVRFAFWSAEEYGLLGSYAYIKSINSSAAELSKIRAYLNFDMIASPNYIYGIYDGDGNAFNLTGPAGSDVIERNFENFFKRKHTPSVPTEFSGRSDYAAFIENGIPSGGLFTGAEVLKTEREAELFGGRAGVAYDVNYHQAGDTVDNLALDAFLLNTKAIADSVATYALSFDGLPRVDGKKRRWDAHRARMLKRSAGSHGHAHLHSGPCGGGASI
Take B4: the “hydrolysis of the peptide, LC-MS label free quantification” value with peptide TPAAAR [2] is listed as “can hydrolyze the peptide TPAAAR over time to less than half the concentration within 2 hr incubation”.
